The target of one assay is HLA-A*29:02. Nature of the assay: IEDB peptide-MHC binding, purified MHC/competitive/fluorescence; filed as Kd, often an IC50 or EC50 that approximates it; ≥ and ≤ were set here for values at or beyond the usual limits of such assays. Particulars: source organism: Giardia lamblia ATCC 50803.
For a further assay, the target named is HLA-A*03:01. Nature of the assay: IEDB peptide-MHC binding, purified MHC/direct/fluorescence; filed as Kd, often an IC50 or EC50 that approximates it; ≥ and ≤ were set here for values at or beyond the usual limits of such assays. To be noted: source organism: Zaire ebolavirus.
The target in a further assay is HLA-A*02:16. The description is as above. To be noted: source organism: Zaire ebolavirus.
Another assay concerns the target HLA-A*02:12. The description is as above. To be noted: source organism: Zaire ebolavirus.
The next assay concerns the target HLA-A*02:11. The assay is described as above. To be noted: source organism: Zaire ebolavirus.
Assay [1] addresses HLA-A*68:02. The assay is described as above. To be noted: source organism: Zaire ebolavirus.
In assay [2] the target is HLA-B*58:01. The assay is described as above. Particulars: source organism: Ebola virus - Eckron (Zaire, 1976).
The next assay concerns the target HLA-A*02:19. The description is as above. Particulars: source organism: Zaire ebolavirus.
For the next assay, the target named is HLA-A*02:03. The description is as above. Particulars: source organism: Zaire ebolavirus.
The target of another assay is HLA-A*26:01. Briefly: IEDB peptide-MHC binding, purified MHC/competitive/fluorescence; filed as Kd, often an IC50 or EC50 that approximates it; ≥ and ≤ were set here for values at or beyond the usual limits of such assays. To be noted: source organism: Zaire ebolavirus.
Assay [3] deals with HLA-B*51:01. The assay is described as above. Particulars: source organism: Zaire ebolavirus.
The target of assay [4] is HLA-B*39:01. The assay is described as above. To be noted: source organism: Zaire ebolavirus.
For a further assay, the target named is HLA-B*15:17. Described as above. To be noted: source organism: Zaire ebolavirus.
The target of assay [5] is HLA-B*15:01. Described as above. Particulars: source organism: Zaire ebolavirus.
Another assay concerns the target HLA-B*27:03. The description is as above. Particulars: source organism: Zaire ebolavirus.
In a further assay the target is HLA-B*46:01. Described as above. Particulars: source organism: Zaire ebolavirus.
The target in another assay is HLA-B*18:01. Described as above. Particulars: source organism: Zaire ebolavirus.
The target in assay [6] is HLA-A*02:01. The description is as above. To be noted: source organism: Zaire ebolavirus.
A further assay addresses HLA-A*69:01. The description is as above. To be noted: source organism: Zaire ebolavirus.
A further assay concerns the target HLA-A*24:02. Briefly: IEDB peptide-MHC binding, purified MHC/competitive/fluorescence; ≥ and ≤ were set here for values at or beyond the usual limits of such assays. Particulars: source organism: Zaire ebolavirus.
Assay [7] deals with HLA-B*15:01. The description is as above.
For assay [8], the target named is HLA-A*02:01. Described as above. Particulars: source organism: Zaire ebolavirus.
For the next assay, the target named is HLA-B*53:01. Nature of the assay: IEDB peptide-MHC binding, purified MHC/competitive/radioactivity; filed as Kd, often an IC50 or EC50 that approximates it; ≥ and ≤ were set here for values at or beyond the usual limits of such assays. Particulars: source organism: Dengue virus 2 Jamaica/1409/1983.
In assay [9] the target is HLA-A*68:02. The assay is described as above. To be noted: source organism: Dengue virus 2 Jamaica/1409/1983.
Assay [10] has as its target HLA-B*58:01. The description is as above. Particulars: source organism: Dengue virus 2 Jamaica/1409/1983.
The target in another assay is HLA-B*35:01. The description is as above. Particulars: source organism: Dengue virus 2 Jamaica/1409/1983.
The target of assay [11] is HLA-B*51:01. Described as above. Particulars: source organism: Dengue virus 2 Jamaica/1409/1983.
Assay [12] concerns the target HLA-B*39:01. Briefly: IEDB peptide-MHC binding, purified MHC/direct/fluorescence; filed as Kd, often an IC50 or EC50 that approximates it; ≥ and ≤ were set here for values at or beyond the usual limits of such assays. To be noted: source organism: Influenza A virus (A/kunke/1/71(H3N2)).
The next assay addresses HLA-B*07:02. Described as above. To be noted: source organism: Escherichia coli O157:H7.
The target in assay [13] is HLA-B*51:01. Described as above. To be noted: source organism: Escherichia coli O157:H7.
Setting [14] is: source organism: Zaire ebolavirus.

Sequence PPIPIWLLF had a dissociation constant Kd with HLA-A*29:02 of 0.197 µM.
Take WLQKIPLQW: the dissociation constant (Kd) with HLA-A*03:01 is no less than 20 µM; with HLA-A*02:16, no less than 20 µM; with HLA-A*02:12 it was no less than 20 µM; with HLA-A*02:11 it was no less than 20 µM; in the assay with HLA-A*68:02 [1], no less than 20 µM; with HLA-B*58:01 [2] it was 0.693 µM. Besides, the dissociation constant (Kd) in the assay with HLA-A*02:19, in the assay with HLA-A*02:03, with HLA-A*26:01, with HLA-B*51:01 [3], with HLA-B*39:01 [4] and with HLA-B*15:17 was no less than 20 µM throughout. Further, the dissociation constant Kd with HLA-B*15:01 [5], with HLA-B*27:03, with HLA-B*46:01, in the assay with HLA-B*18:01, with HLA-A*02:01 [6] and with HLA-A*69:01 was no less than 20 µM each time.
As to FVTLDGQQF, the results for the 50% inhibitory concentration (IC50) in the assay with HLA-A*24:02, in the assay with HLA-B*15:01 [7] (setting [14]) and with HLA-A*02:01 [8] were 17.6 µM, 61.1 µM and no less than 121 µM, respectively.
Regarding RTIHHASAP, the IC50 was 36.4 µM with HLA-B*15:01 [7] (setting [14]) and no less than 622 µM with HLA-A*02:01 [8].
In the case of MAAILAYTI, the equilibrium dissociation constant (Kd) with HLA-B*53:01 came out at 0.0132 µM; with HLA-A*68:02 [9], 0.00473 µM; with HLA-B*58:01 [10], 0.00126 µM; with HLA-B*35:01 it was 1.73 µM; with HLA-B*51:01 [11] it was 0.0101 µM.
In the case of SYFTNMFATWSP, in the assay with HLA-B*15:01 [7] (source organism: Homo sapiens), the half-inhibitory concentration (IC50) is 5.8 µM.
The sequence HHAVPNGTL came in with a dissociation constant (Kd) with HLA-B*39:01 [12] of 0.0521 µM.
As for LIVKTVLDH, the concentration for half-maximal inhibition (IC50) in the assay with HLA-B*15:01 [7] (setting [14]) was no less than 73.9 µM.
Take LPQRHHIML: the values for the Kd with HLA-B*07:02 and in the assay with HLA-B*51:01 [13] were 0.0015 µM and no less than 20 µM, respectively.

(Values after the Immune Epitope Database (IEDB).)
